Assay results: patent US20010052137A1, “Axin domain-like polypeptide inhibitors of glycogen synthase kinase 3 beta activity and activators of wnt signaling” (Trustees of the University of Pennsylvania, priority 2000, published 2001)

B1: amino-terminal fragment: Myc-tagged fragment, amino acid residues 63-288 of Xaxin (protein)
chain: RPDLDLGYEPEGSASPTPPYLKWAESLHSLLDDQDGIHLFRTFLQQENCADLLDFWFACSGFRKLEPNDSKVEKRLKLAKAIYKKYVLDSNGIVSRQIKPATKSFIKDCVLRQQIDPAMFDQAQMEIQSMMEDNTYPVFLKSDIYLEYTTIGGESPKNYSDQSSGSGTGKGPSGYLPTLNEDEEWRCDQGGEHERERECIPSSLFSQKLALDSSSHCAGSNRRLSD
modifications: left off: small tags and cut ends
notes: Myc-tagged fragment, amino acid residues 63-288 of Xaxin
B2: carboxyl-terminal fragment: Myc-tagged fragment, amino acid residues 429-713 of Xaxin (protein)
chain: SGPSVISHKLPSGPPMHHFNSRYSETGCVGMQIRDAHEENPESILDEHVQRVMKTPGCQSPGTGRHSPKSRSPDGHLSKTLPGSLGTMQTGHGKHSSKSTAKVDSGNLHHHKHVYHHVHHHGGVKPKEQIDGESTQRVQTNFPWNVESHNYATKSRNYAESMGMAPNPMDSLAYSGKVSMLSKRNAKKADLGKSESASHEMPVVPEDSERHQKILQWIMEGEKEIIRHKKSNHSSSSAKKQPPTELARPLSIERPGAVHPWVSAQLRNVVQPSHPFIQDPTMPPN
modifications: left off: small tags and cut ends
notes: Myc-tagged fragment, amino acid residues 429-713 of Xaxin
B3: deltaRGS: Xaxin having amino acid residues 80-290 (RGS domain) deleted (protein)
chain: MSVKGKGFPLDLGGSFTEDAPRPPVPGEEGELITTDQRPFSHTYYSLKNDGIKNETSTATPRRPDLDLGYEPEGSASPTPREFRPGTWREPVNPYYVNTGYAGAPVTSANDSEQQSMSSDADTMSLTDSSVDGIPPYRLRKHYRREMQESANANGRGPLPHIPRTYHMPKDIHVDPEKFAAELISRLEGVLRDREAEQKLEERLKRVRAEEEGDDGDVSSGPSVISHKLPSGPPMHHFNSRYSETGCVGMQIRDAHEENPESILDEHVQRVMKTPGCQSPGTGRHSPKSRSPDGHLSKTLPGSLGTMQTGHGKHSSKSTAKVDSGNLHHHKHVYHHVHHHGGVKPKEQIDGESTQRVQTNFPWNVESHNYATKSRNYAESMGMAPNPMDSLAYSGKVSMLSKRNAKKADLGKSESASHEMPVVPEDSERHQKILQWIMEGEKEIIRHKKSNHSSSSAKKQPPTELARPLSIERPGAVHPWVSAQLRNVVQPSHPFIQDPTMPPNPAPNPLTQLVSKPGARLEEEEKKAAKMPQKQRLKPQKKNVSAPSQPCDNIVVAYYFCGEPIPYRTMVKGRVVTLGQFKELLTKKGNYRYYFKKVSDEFDCGVVFEEVREDDMILPIYEEKIIGQVEKID
modifications: left off: small tags and cut ends
notes: Xaxin having amino acid residues 80-290 (RGS domain) deleted
B4: deltaGID: Xaxin having amino acid residues 324-504 deleted (protein)
chain: MSVKGKGFPLDLGGSFTEDAPRPPVPGEEGELITTDQRPFSHTYYSLKNDGIKNETSTATPRRPDLDLGYEPEGSASPTPPYLKWAESLHSLLDDQDGIHLFRTFLQQENCADLLDFWFACSGFRKLEPNDSKVEKRLKLAKAIYKKYVLDSNGIVSRQIKPATKSFIKDCVLRQQIDPAMFDQAQMEIQSMMEDNTYPVFLKSDIYLEYTTIGGESPKNYSDQSSGSGTGKGPSGYLPTLNEDEEWRCDQGGEHERERECIPSSLFSQKLALDSSSHCAGSNRRLSDGREFRPGTWREPVNPYYVNTGYAGAPVTSANDSEQQHLSKTLPGSLGTMQTGHGKHSSKSTAKVDSGNLHHHKHVYHHVHHHGGVKPKEQIDGESTQRVQTNFPWNVESHNYATKSRNYAESMGMAPNPMDSLAYSGKVSMLSKRNAKKADLGKSESASHEMPVVPEDSERHQKILQWIMEGEKEIIRHKKSNHSSSSAKKQPPTELARPLSIERPGAVHPWVSAQLRNVVQPSHPFIQDPTMPPNPAPNPLTQLVSKPGARLEEEEKKAAKMPQKQRLKPQKKNVSAPSQPCDNIVVAYYFCGEPIPYRTMVKGRVVTLGQFKELLTKKGNYRYYFKKVSDEFDCGVVFEEVREDDMILPIYEEKIIGQVEKID
modifications: left off: small tags and cut ends
notes: Xaxin having amino acid residues 324-504 deleted

How the values were obtained:
[1] = system: GSK-3 beta; test: Co-immunoprecipitation of GSK-3 beta with Myc-tagged Xaxin constructs in Xenopus oocytes; format: binding; settings: Myc-tagged construct co-expressed with GSK-3 beta in Xenopus oocytes; anti-Myc IP, anti-GSK-3 beta blot
[2] = system: beta-catenin; test: beta-catenin protein accumulation in Xenopus oocytes (immunoblot); format: cell-based; settings: construct mRNA expressed in Xenopus oocytes
Procedure: FIG. 2A is an image of an immunoblot of Xenopus cytoplasmic extracts obtained from Xenopus embryos in which beta-catenin was expressed, using an antibody which binds specifically with beta-catenin (described in McCrea et al., 1993, J. Cell. Biol. 123:477-84). The embryo corresponding to lane 2 was incubated in the presence of 20 millimolar LiCI. Extracts corresponding to lanes 3-5, 7, and 8 were obtained from embryos in which full-length (lane 8) Xaxin or the C-term (lane 3), GID1 (“GID”; lanes 4 and 7), or N-term (lane 5) fragments of Xaxin were expressed.
Although endogenous GSK-3 beta is not present at sufficient levels to detect using the tau assay, inhibition of GSK-3 beta is known to cause stabilization of cytoplasmic beta-catenin (Cadigan et al., 1997, Genes Dev. 11:3286-3305; Miller et al., 1996, Genes Develop. 10:2527-2539), and this serves as a widely used assay for downstream activation of wnt signaling. Inhibition of endogenous GSK-3 beta activity also causes stabilization of beta-catenin in Xenopus embryos and oocytes (Hedgepeth et al., 1997, Develop. Biol. 185:82-91; Yost et al., 1998, Cell 93:1031-1041; Yost et al., 1996, Genes Develop. 10:1443-1454). For this reason, levels of beta-catenin protein were assessed in Xenopus oocytes which had been injected either with full length Xaxin mRNA or with mRNA encoding one of the amino-terminal, GID, or carboxyl-terminal domains of Xaxin.

[3] = system: GSK-3 beta; test: In ovo tau phosphorylation assay: GSK-3 beta and Xaxin constructs co-expressed in Xenopus oocytes; format: cell-based; settings: construct co-expressed with GSK-3 beta in Xenopus oocytes; tau microinjected; PHF-1 immunoblot
Procedure: Stage VI Xenopus oocytes were isolated by collagenase treatment (Smith et al., 1994, Meth. Cell Biol. 36:45-58) and were injected with mRNA prepared by in vitro transcription (mMessage Machine™; Ambion, Austin, Tex.). 10 nanoliters of mRNA (containing 1-2 nanograms per nanoliter) was injected for each construct (unless otherwise specified), and the injected oocytes were incubated for 16 hours at 18° C. To analyze the effects of Xaxin constructs on dorsal-ventral pattern formation, Xenopus embryos were injected with 10 nanoliters of mRNA (0.1-0.2 nanogram per nanoliter) into one dorsal or ventral cell of a 4 cell embryo and dorsal axes were assessed at the tadpole stage. For Xaxin co-immunoprecipitation, fertilized eggs were injected with 10 nanoliters of Xaxin tagged with Myc, with hemagglutinin, or with both Myc and hemagglutinin (1 nanogram per nanoliter) and harvested at the blastula stage (stage 8).
In ovo phosphorylation of tau by GSK-3 beta was performed by microinjection of tau protein into oocytes expressing GSK-3 beta and Xaxin constructs. After 90 minutes, oocytes were homogenized and tau phosphorylation was analyzed in western blots using phospho-specific antibodies as described (Hedgepeth et al., 1997, Develop. Biol. 185:82-91). In vitro assays for GSK-3 beta activity were performed as described (Klein et al., 1996, Proc. Natl. Acad. Sci. USA 93:8455-8459). Recombinant GID-2/his protein (described below) was purified by affinity chromatography and added to in vitro assays at selected concentrations.
In the experiments presented in this example, a tau phosphorylation assay (described in Hedgepeth et al., 1997, Develop. Biol. 185:82-91) was used to examine the activity of GSK-3 beta in Xenopus oocytes in the presence of full length axin and axin deletion mutants. […] Furthermore, GSK-3 beta-dependent tau phosphorylation occurs in oocytes at the same sites (tau serine residues 396 and 404) that are phosphorylated by GSK-3 beta in vitro and occurs with similarly rapid kinetics.
GSK-3 beta was expressed in oocytes together with Myc-tagged full length Xaxin or with the amino-terminal (amino acid residues 63-288), GID-1 (amino acid residues 277-545), or carboxyl-terminal (amino acid residues 429-713) fragments of Xaxin, as depicted in FIG. 1A. Purified tau protein was then microinjected into the oocytes, and phosphorylation of tau was measured by immunoblotting using antibody PHF-1 or with antibodies that detect all (i.e. phosphorylated and non-phosphorylated) forms of tau.
In order to identify the domain of axin necessary for GSK-3 beta binding, multiple Myc-tagged GID deletion constructs (shown diagrammatically in FIG. 3A) were individually expressed in Xenopus oocytes in which GSK-3 beta was also expressed. Tau protein was microinjected into the oocytes, and immunoblotting was performed using phosphorylation-state-specific tau antibodies. A parallel group of oocytes expressing GSK-3 beta and the Myc-tagged GID deletion constructs were lysed, and GID proteins were immunoprecipitated using a Myc-specific antibody. The presence or absence of GSK-3 beta in GID immunoprecipitates was detected using GSK-3 beta-specific antibodies. GID deletion constructs which included amino acid residues 380-404 of Xaxin (i.e. constructs GID-1, GID-2, GID-4, GID-5, and GID-6) bound GSK-3 beta and inhibited GSK-3 beta mediated tau phosphorylation, as indicated in FIG. 3A. […] However, changing leucine residue 392 in FIG. 3B to proline abolishes its activity.

[4] = system: Xenopus embryos; test: Dorsal axis duplication / dorsalization in Xenopus embryos after mRNA injection; format: in vivo; settings: for effect on axial development / axis formation: construct expressed in embryos, injection side not stated

Molecule	binding with GSK-3 beta (co-immunoprecipitation) [1]	accumulation of beta-catenin [2]	GSK-3 beta-mediated tau phosphorylation (GSK-3 beta activity) [3]	effect on axial development / axis formation [4]	embryos that exhibited dorsalization ([4]; construct(s) expressed in Xenopus embryos)
B1	Neither the amino- nor carboxyl-terminal fragments of axin bound	not observed	no effect	no apparent effect	–
B2	Neither the amino- nor carboxyl-terminal fragments of axin bound	not observed	no effect	no apparent effect	–
B3	bound	–	inhibited	complete axis duplication	86%
B4	did not bind	–	no discernible effect	infrequent ectopic posterior axis formation	–
